Test results reported in the Immune Epitope Database (IEDB).

Legend:
HLA-C*14:02 = test: IEDB peptide-MHC binding, purified MHC/direct/fluorescence; filed as Kd, often an IC50 or EC50 that approximates it; ≥ and ≤ were set here for values at or beyond the usual limits of such assays
HLA-A*24:03 [1] = test: IEDB peptide-MHC binding, purified MHC/competitive/fluorescence; filed as Kd, often an IC50 or EC50 that approximates it; ≥ and ≤ were set here for values at or beyond the usual limits of such assays; settings: source organism: Escherichia coli str. K-12 substr. MG1655
HLA-A*24:02 = test: as above
HLA-C*05:01 = test: IEDB peptide-MHC binding, purified MHC/direct/fluorescence; filed as Kd, often an IC50 or EC50 that approximates it; ≥ and ≤ were set here for values at or beyond the usual limits of such assays; settings: source organism: Variola virus
HLA-B*51:01 [2] = test: IEDB peptide-MHC binding, purified MHC/competitive/radioactivity; filed as Kd, often an IC50 or EC50 that approximates it; ≥ and ≤ were set here for values at or beyond the usual limits of such assays; settings: source organism: Vaccinia virus WR
HLA-B*35:01 = test: as above; settings: source organism: Vaccinia virus WR
HLA-B*54:01 = test: as above; settings: source organism: Vaccinia virus WR
HLA-B*53:01 = test: as above; settings: source organism: Vaccinia virus WR
HLA-B*07:02 = test: as above; settings: source organism: Vaccinia virus WR
HLA-A*02:11 = test: IEDB peptide-MHC binding, purified MHC/direct/fluorescence; filed as Kd, often an IC50 or EC50 that approximates it; ≥ and ≤ were set here for values at or beyond the usual limits of such assays
HLA-A*69:01 = test: as above
HLA-A*02:16 = test: as above
HLA-A*03:01 = test: as above
HLA-B*39:01 = test: as above
HLA-B*51:01 [3] = test: as above
HLA-B*18:01 = test: as above
HLA-B*15:01 = test: as above
HLA-A*02:03 = test: as above
HLA-A*02:19 = test: as above
HLA-B*27:03 = test: as above
HLA-A*02:12 = test: as above
HLA-A*24:03 [4] = test: as above
HLA-B*15:17 = test: as above
HLA-B*46:01 = test: as above
HLA-A*23:01 = test: as above; settings: source organism: Toxoplasma gondii
HLA-A*29:02 = test: as above
HLA-B*57:01 = test: as above
HLA-A*68:02 = test: as above; settings: source organism: Toxoplasma gondii
HLA-A*26:01 = test: as above
HLA-A*02:01 = test: as above
HLA-C*07:02 = test: as above; settings: source organism: Cryptosporidium parvum Iowa II
HLA-C*15:02 = test: as above
HLA-C*06:02 = test: as above; settings: source organism: Cryptosporidium parvum
HLA-C*08:02 = test: as above; settings: source organism: Vaccinia virus WR
HLA-C*12:03 = test: as above; settings: source organism: Vaccinia virus WR
HLA-B*51:01 [5] = test: IEDB peptide-MHC binding, purified MHC/competitive/fluorescence; filed as Kd, often an IC50 or EC50 that approximates it; ≥ and ≤ were set here for values at or beyond the usual limits of such assays; settings: source organism: Vaccinia virus WR
HLA-C*03:03 = test: IEDB peptide-MHC binding, purified MHC/direct/fluorescence; filed as Kd, often an IC50 or EC50 that approximates it; ≥ and ≤ were set here for values at or beyond the usual limits of such assays; settings: source organism: Campylobacter jejuni subsp. jejuni 81-176
[6] = source organism: Toxoplasma gondii
[7] = source organism: Staphylococcus aureus subsp. aureus N315
[8] = source organism: Cryptosporidium parvum
[9] = source organism: Toxoplasma gondii RH
[10] = source organism: Camelpox virus M-96
[11] = source organism: Campylobacter jejuni subsp. jejuni 81116

## AYPELACAV
HLA-C*14:02; source organism: Escherichia coli str. K-12 substr. MG1655
  Kd: ≤ 0.001 µM
HLA-A*24:03 [1]
  Kd: 0.406 µM

## KWMMAMRYPI
HLA-A*24:02; source organism: Influenza A virus (A/chicken/Fujian/25/00(H9N2))
  Kd: 0.0032 µM

## LPMIIGEPI
HLA-C*05:01
  Kd: ≥ 20 µM
HLA-B*51:01 [2]
  Kd: 0.00117 µM
HLA-B*35:01
  Kd: 0.0645 µM
HLA-B*54:01
  Kd: 0.00157 µM
HLA-B*53:01
  Kd: 0.0056 µM
HLA-B*07:02
  Kd: 0.000255 µM

## LPPVVPPLI
HLA-A*02:11; [6]
  Kd: ≥ 20 µM
HLA-A*69:01; [6]
  Kd: ≥ 20 µM
HLA-A*02:16; [6]
  Kd: ≥ 20 µM
HLA-A*03:01; [6]
  Kd: ≥ 20 µM
HLA-B*39:01; [6]
  Kd: ≥ 20 µM
HLA-B*51:01 [3]; [6]
  Kd: 0.201 µM
HLA-B*18:01; [6]
  Kd: ≥ 20 µM
HLA-B*15:01; [6]
  Kd: ≥ 20 µM
HLA-A*02:03; [6]
  Kd: ≥ 20 µM
HLA-A*02:19; [6]
  Kd: ≥ 20 µM
HLA-B*27:03; [6]
  Kd: ≥ 20 µM
HLA-A*02:12; [6]
  Kd: ≥ 20 µM
HLA-A*24:03 [4]; [6]
  Kd: ≥ 20 µM
HLA-B*15:17; [6]
  Kd: ≥ 20 µM
HLA-B*46:01; [6]
  Kd: ≥ 20 µM
HLA-A*23:01
  Kd: ≥ 20 µM
HLA-A*29:02; [6]
  Kd: ≥ 20 µM
HLA-B*57:01; [6]
  Kd: ≥ 20 µM
HLA-A*68:02
  Kd: ≥ 20 µM
HLA-A*26:01; [6]
  Kd: ≥ 20 µM
HLA-A*02:01; [6]
  Kd: ≥ 20 µM

## NYKWWWFSF
HLA-C*07:02
  Kd: 0.181 µM
HLA-A*24:02; source organism: Cryptosporidium parvum Iowa II
  Kd: 0.0023 µM

## RTQAVIYAF
HLA-C*14:02; [7]
  Kd: 0.133 µM
HLA-C*15:02; [7]
  Kd: 1.4 µM
HLA-A*24:03 [4]; source organism: Bacillus anthracis
  Kd: 0.0013 µM

## RYMYIYLFI
HLA-A*24:03 [4]; [8]
  Kd: 0.004 µM
HLA-C*06:02
  Kd: ≥ 20 µM
HLA-A*24:02; [8]
  Kd: 0.0036 µM

## RYSKKFKPEI
HLA-A*24:02; source organism: Influenza A virus (A/Swine/Indiana/9K035/99 (H1N2))
  Kd: 0.033 µM

## THADAHTQL
HLA-A*02:11; [9]
  Kd: ≥ 20 µM
HLA-A*69:01; [9]
  Kd: ≥ 20 µM
HLA-A*02:16; [9]
  Kd: ≥ 20 µM
HLA-A*03:01; [9]
  Kd: ≥ 20 µM
HLA-B*51:01 [3]; [9]
  Kd: ≥ 20 µM
HLA-B*18:01; [9]
  Kd: ≥ 20 µM
HLA-B*15:01; [9]
  Kd: ≥ 20 µM
HLA-A*02:03; [9]
  Kd: ≥ 20 µM
HLA-A*02:19; [9]
  Kd: ≥ 20 µM
HLA-B*27:03; [9]
  Kd: ≥ 20 µM
HLA-A*02:12; [9]
  Kd: ≥ 20 µM
HLA-A*24:03 [4]; [9]
  Kd: ≥ 20 µM
HLA-B*15:17; [9]
  Kd: ≥ 20 µM
HLA-B*46:01; [9]
  Kd: ≥ 20 µM
HLA-A*29:02; [9]
  Kd: ≥ 20 µM
HLA-B*57:01; [9]
  Kd: ≥ 20 µM
HLA-A*26:01; [9]
  Kd: ≥ 20 µM
HLA-A*02:01; [9]
  Kd: ≥ 20 µM

## YLYETYHLI
HLA-C*08:02
  Kd: ≥ 20 µM
HLA-A*69:01; [10]
  Kd: 0.0038 µM
HLA-A*02:01; [10]
  Kd: 0.002 µM
HLA-C*12:03
  Kd: 0.155 µM
HLA-B*51:01 [5]
  Kd: 4 µM

## YTASVVAAY
HLA-C*14:02; source organism: Homo sapiens
  Kd: 0.098 µM
HLA-C*15:02; source organism: Homo sapiens
  Kd: ≥ 20 µM

## YTNYPFLFF
HLA-A*02:16; [11]
  Kd: ≥ 20 µM
HLA-A*03:01; [11]
  Kd: ≥ 20 µM
HLA-C*15:02; source organism: Campylobacter jejuni subsp. jejuni 81-176
  Kd: 0.025 µM
HLA-B*39:01; [11]
  Kd: ≥ 20 µM
HLA-B*51:01 [3]; [11]
  Kd: ≥ 20 µM
HLA-C*03:03
  Kd: 0.159 µM
HLA-A*02:03; [11]
  Kd: ≥ 20 µM
HLA-A*02:19; [11]
  Kd: ≥ 20 µM
HLA-B*27:03; [11]
  Kd: ≥ 20 µM
HLA-A*02:12; [11]
  Kd: ≥ 20 µM
HLA-A*02:01; [11]
  Kd: ≥ 20 µM
